Article PMC11806106

Tests used:
[1] = target: MOR-nLuc (rat µ opioid receptor, wild type, with C-terminal nLuc) (rat) (UniProt P33535)
[2] = target: rat µ opioid receptor (MOR-wt) (rat) (UniProt P33535)
[3] = target: MOR BRET sensor (G267-MOR sensor with mTurq2 replaced by nLuc2) (rat) (UniProt P33535)

DAMGO (peptide)
EC50 of agonist-induced arrestin3 interaction with MOR-nLuc (BRET, with GRK2) [1]: 282 nM
EC50 of Go activation (BRET-based activity sensor Go1-case) [2]: 2.92 nM
EC50 of the agonist-induced change of the BRET ratio of the MOR BRET conformation sensor [3]: 445 nM
